Assay results from patent publication US20240043883A1 (Board of Trustees of Michigan State University, priority 2021, published 2024).
Changes are numbered by the printed parent chain. In names and notes the source's numbering stands.

Tests used:
[1] = target: engineered phosphite dehydrogenase PTDH (12x Opt PTDH) from Pseudomonas stutzeri, SEQ ID NO: 73 (Stutzerimonas stutzeri, UniProt O69054, A319E/A325V/C336D/D13E/E130K/E175A/E332N/I150F/I313L/L276Q/M26I/Q132R/Q137R/Q215L/R275Q/V315A/V71I); test: Michaelis-Menten kinetics of PTDH with sodium phosphite, reduction of NADP^+ at 340 nm; format: biochemical; conditions: sodium phosphite 10-1000 μM, NADP^+ 0.3 mM; 100 mM sodium phosphate pH 8.0, 25 °C
Sequence of engineered phosphite dehydrogenase PTDH (12x Opt PTDH) from Pseudomonas stutzeri, SEQ ID NO: 73 (O69054 other isoform, or with tags, fused parts or gaps with the stated changes): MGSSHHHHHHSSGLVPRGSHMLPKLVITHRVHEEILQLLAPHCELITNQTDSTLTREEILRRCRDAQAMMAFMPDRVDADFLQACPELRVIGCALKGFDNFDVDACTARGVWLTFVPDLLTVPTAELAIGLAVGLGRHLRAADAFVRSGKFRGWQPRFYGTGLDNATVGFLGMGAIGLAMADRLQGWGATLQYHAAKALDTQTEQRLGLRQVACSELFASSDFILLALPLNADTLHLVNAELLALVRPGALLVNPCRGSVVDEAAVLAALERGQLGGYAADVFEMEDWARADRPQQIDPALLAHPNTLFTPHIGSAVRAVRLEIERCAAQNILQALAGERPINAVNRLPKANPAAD
Experimental: All assays were carried out in triplicate at 25° C. in 100 mM sodium phosphate pH 8.0 in a final volume of 200 μL, unless otherwise specified. All stock solutions were prepared in 100 mM sodium phosphate pH 8.0, unless otherwise specified. A sodium phosphite stock solution was prepared by dissolving an appropriate amount of the solid in a volumetric flask with water.
The assay contained PTDH (0.05 mg mL^−1, 10 μL of a 1 mg mL^−1 stock) and NADP^+ (0.3 mM, 10 μL of a 5 mg mL^−1 stock). The assays were initiated with the addition of sodium phosphite in varying concentrations (10-1000 μM). See. FIG. 23.

[2] = target: T1, Corynebacterium glutamicum Cg10062 variant E114N, SEQ ID NO: 62 (Corynebacterium glutamicum, UniProt Q8NU77, E115N); test: Michaelis-Menten kinetics of ACA hydration, coupled enzyme assay (MSAD/ADH, NADH oxidation at 340 nm)
T1 sequence (Q8NU77 with tags, fused parts or gaps E115N): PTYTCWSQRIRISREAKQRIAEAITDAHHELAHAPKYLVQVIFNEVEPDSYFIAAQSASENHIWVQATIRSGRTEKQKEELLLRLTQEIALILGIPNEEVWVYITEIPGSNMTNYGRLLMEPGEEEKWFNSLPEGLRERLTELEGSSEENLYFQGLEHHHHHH
Experimental: The amount of enzyme used in each assay was varied in order to observe measurable activity. […] The ratios of MSA and acetaldehyde formed by each enzyme was determined by the coupled enzyme assay (FIG. 13), using the differences in rates in the presence and absence of MSAD (Table 10). […] All other components used for steady-state kinetics were identical to those used in the initial screening assays.

[3] = substrate: C#CC(=O)O; test: purified protein, by the assay type; conditions: other: ACA, 100 mM sodium phosphate pH 8.0, 25 °C
[4] = substrate: C#CC(=O)O; test: purified protein, by the assay type; format: biochemical, Corynebacterium glutamicum; conditions: other: ACA, 100 mM sodium phosphate pH 8.0, 25 °C
Experimental: (§1) Steady-state kinetics were carried out using a Molecular Devices SpectraMax iD3 multi-mode microplate reader and Shimadzu UV2600 spectrophotometer. All assays were carried out in triplicate at 25° C. in 100 mM sodium phosphate pH 8.0 with a final volume of 200 μL, unless otherwise specified. The reduction of acetaldehyde by NADH-dependent alcohol dehydrogenase (ADH) was monitored by following the oxidation of NADH at 340 nm (ε=6220 M^−1 cm^−1).
(§2) All stock solutions, except ADH, required for the kinetics assays used for determining hydratase and hydratase/decarboxylase activities were prepared in 100 mM sodium phosphate pH 8.0. […] Stock solutions of ADH were prepared using deionized water, as recommended by the manufacturer. […] The final pH of each assay was 8.
(§3) The amount of enzyme used in each assay was varied in order to observe measurable activity. Thus, the rates obtained from this experiment were not used directly to compare the enzyme activity. These activities were only used for establishing the product profile of each enzyme. The ratios of MSA and acetaldehyde formed by each enzyme was determined by the coupled enzyme assay (FIG. 13), using the differences in rates in the presence and absence of MSAD (Table 10). […] All other components used for steady-state kinetics were identical to those used in the initial screening assays.

[5] = Coupled enzyme assay (ADH, with and without MSAD): hydratase and hydratase/decarboxylase activity and product profile of Cg10062 and variants; format: biochemical; conditions: for Rate in the absence of MSAD / Rate in the presence of MSAD: ACA 0.5 mM, pH 8, enzyme final concentration differs per variant (0.025-1.50 mg mL^−1), rates not directly comparable; for Product Ratio (%) acetaldehyde / Product Ratio (%) malonate semialdehyde: from Cg10062 activity in the presence and absence of MSAD; for Product Ratio (%) acetaldehyde: * from non-enzymatic decarboxylation of malonate semialdehyde; for Product Ratio (%) malonate semialdehyde: ACA substrate, pH 8.0, 25° C.
Experimental: as §1, §2, §3

[6] = cited from earlier work; for activity relative to the Cg10062 / product of ACA hydration: previously described variants, in words
[7] = substrate: O=CCC(=O)O; test: purified protein, by the assay type; format: biochemical, Pseudomonas putida KT2440; conditions: other: MSA generated in situ from ACA (50-10,000 μM), NADH 0.1 mg/mL, 100 mM potassium phosphate pH 8.0, 25 °C
Experimental: MmsB was characterized using the coupled enzyme assay show in FIG. 28. All assays were carried out in triplicate at 25° C. in 100 mM potassium phosphate pH 8.0, at a final volume of 1 mL. All stock solutions used for the assays were prepared in 100 mM potassium phosphate pH 8.0. […] The assay contained Cg10062 (E114N) (0.8 U), MmsB (0.001 mg mL−1, 10 μL of a 0.1 mg mL−1 stock) and NADH (0.1 mg/mL, 20 μL of a 5 mg mL−1 stock). […] All other components and methods used for steady-state kinetics were identical to those described in Example 5.

[8] = substrate: O=CCC(=O)O; test: purified protein, by the assay type; format: biochemical, Escherichia coli; conditions: other: MSA generated in situ from ACA (10-2000 μM), NADPH 0.3 mM, 100 mM sodium phosphate pH 8.0, 25 °C
Experimental: YdfG was characterized using the coupled enzyme assay show in FIG. 19. All assays were carried out in triplicate at 25° C. in 100 mM sodium phosphate pH 8.0, in a final volume of 200 μL, unless otherwise specified. All stock solutions prepared for the assays were prepared in 100 mM sodium phosphate pH 8.0. […] The assay contained a large excess of Cg10062 (E114N) (2 U), YdfG (0.005 mg mL^−1, 10 μL of a 0.1 mg mL^−1 stock) and NADPH (0.3 mM, 10 μL of a 5 mg mL^−1 stock).

## O=[PH]([O-])[O-].[Na+].[Na+] [sodium phosphite]
[1]
  Km: 778 ± 44 µM
  kcat: 3.45 ± 0.06 s⁻¹

## C#CC(=O)O [ACA, acetylenecarboxylic acid]
[2]; ACA hydration, relative to E114D
  kcat fold higher than Cg10062 (E114D): 1.5 fold
[2]; ACA hydration, relative to E114Q
  kcat fold higher than Cg10062 (E114Q): 3 fold
[2]; ACA hydration, relative to wild-type Cg10062
  overall catalytic efficiency relative to wild-type: comparable to that of the wild-type enzyme
[2]; ACA, 100 mM sodium phosphate pH 8.0, 25 °C
  kcat: 1.04 ± 0.07 s⁻¹

B1: Corynebacterium glutamicum Cg10062 variant E114N, SEQ ID NO: 62 (Corynebacterium glutamicum ATCC 13032; E115N) (protein)
chain: T1 sequence (Q8NU77 with tags, fused parts or gaps E115N)
[3]
  Km: 45 ± 1 µM

B2: Corynebacterium glutamicum Cg10062 variant E114D-Y103F, SEQ ID NO: 71 (Corynebacterium glutamicum ATCC 13032; E115D/Y104F) (protein)
chain: T1 sequence (Q8NU77 with tags, fused parts or gaps E115N) with Y103F, N114D
[4]
  Km: 72 ± 7 µM
  kcat: 0.34 ± 0.01 s⁻¹
  kcat/Km: 4700 ± 500 M⁻¹ s⁻¹

B3: Corynebacterium glutamicum Cg10062, wild-type, SEQ ID NO: 59 (Corynebacterium glutamicum ATCC 13032) (protein)
chain: T1 sequence (Q8NU77 with tags, fused parts or gaps E115N) with N114E
[3]
  Km: 66 ± 4 µM
  kcat: 8.21 s⁻¹
  kcat/Km: 124000 M⁻¹ s⁻¹

B4: Cg10062: Tautomerase superfamily enzyme from Corynebacterium glutamicum, SEQ ID NO: 21; His6-tagged form SEQ ID NO: 59 (protein)
chain: PTYTCWSQRIRISREAKQRIAEAITDAHHELAHAPKYLVQVIFNEVEPDSYFIAAQSASENHIWVQATIRSGRTEKQKEELLLRLTQEIALILGIPNEEVWVYITEIPGSNMTEYGRLLMEPGEEEKWFNSLPEGLRERLTELEGSSE
modifications: Cg10062 from Corynebacterium glutamicum codon-optimized for Escherichia coli
[5]
  Rate in the absence of MSAD: 120 µM/min
  Rate in the presence of MSAD: 146 µM/min
  Product Ratio (%) acetaldehyde: 81%
  Product Ratio (%) malonate semialdehyde: 19%
[6]; background statement
  acetaldehyde in product mixture from ACA: 75%
  malonate semialdehyde in product mixture from ACA: 25%

B5: Cg10062(E114Q): Previously described Cg10062 variant with E114Q mutation, SEQ ID NO: 22 and 60 (protein)
chain: B4 chain with E114Q
modifications: Cg10062(E114Q) from Corynebacterium glutamicum codon-optimized for Escherichia coli
[5]
  Rate in the absence of MSAD: no activity
  Rate in the presence of MSAD: 102 µM/min
  Product Ratio (%) acetaldehyde: <1* %
  Product Ratio (%) malonate semialdehyde: >99%
[6]
  activity relative to the Cg10062: significantly lower activity
  product of ACA hydration: MSA exclusively

B6: Cg10062(E114D): Previously described Cg10062 variant with E114D mutation, SEQ ID NO: 23 and 61 (protein)
chain: B4 chain with E114D
modifications: Cg10062(E114D) from Corynebacterium glutamicum codon-optimized for Escherichia coli
[5]
  Rate in the absence of MSAD: no activity
  Rate in the presence of MSAD: 90 µM/min
  Product Ratio (%) acetaldehyde: <1* %
  Product Ratio (%) malonate semialdehyde: >99%
[6]
  activity relative to the Cg10062: significantly lower activity
  product of ACA hydration: MSA exclusively

B7: P. putida KT2440 3-hydroxyisobutyrate dehydrogenase MmsB, SEQ ID NO: 76 (Pseudomonas putida KT2440) (protein)
chain: MRIAFIGLGNMGAPMARNLIKAGHQLNLFDLNKAVLAELAELGGQISPSPKDAAANSELVITMLPAAAHVRSVYLNEDGVLAGIRPGTPTVDCSTIDPQTARDVSKAAAAKGVDMGDAPVSGGTGGAAAGTLTFMVGASTELFASLKPVLEQMGRNIVHCGEVGTGQIAKICNNLLLGISMIGVSEAMALGNALGIDTKVLAGIINSSTGRCWSSDTYNPWPGIIETAPASRGYTGGFGAELMLKDLGLATEAARQAHQPVILGAVAQQLYQAMSLRGEGGKDFSAIVEGYRKKDENLYFQGLEHHHHHH
[7]
  Km: 2220 ± 192 µM
  kcat: 101 ± 5 s⁻¹
  kcat/Km: 45500 ± 5900 M⁻¹ s⁻¹

B8: E. coli 3-hydroxy acid dehydrogenase YdfG, SEQ ID NO: 75 (Escherichia coli K-12) (protein)
chain: MIVLVTGATAGFGECITRRFIQQGHKVIATGRRQERLQELKDELGDNLYIAQLDVRNRAAIEEMLASLPAEWCNIDILVNNAGLALGMEPAHKASVEDWETMIDTNNKGLVYMTRAVLPGMVERNHGHIINIGSTAGSWPYAGGNVYGATKAFVRQFSLNLRTDLHGTAVRVTDIEPGLVGGTEFSNVRFKGDDGKAEKTYQNTVALTPEDVSEAVWWVSTLPAHVNINTLEMMPVTQSYAGLNVHRQENLYFQGLEHHHHHH
[8]
  Km: 137 ± 18 µM
  kcat: 6.62 ± 0.43 s⁻¹
  kcat/Km: 48300 ± 7100 M⁻¹ s⁻¹
